# According to the DeepSol protein solubility set:
# Assay: soluble on expression in E. coli; label from the status in PepcDB or PDB records
row,Sequence,soluble on expression in E. coli
1,MSLEEVLKDIERDKEEKKKEIADAASRETAKIEKEREEKIQILQREYENRMREEGSRLYNSIIDKANVEARNIVRMRVQEILDQYGAKADELIKNLAKTKEYDDVLKKMIEVSRKALGPDCIVKVNTADKGRISDGNIKFEDIDPYGGVLATSRDGKIELDLRISSIRRDILERFKVRLYSMIED,not soluble
2,MIGYLRGLAVIVEDVEFARRLYKEGFYGRFLGYDKVKRDEVEKINAPLILGLYEALYLAEKGRLKVMGEDGREVAPEELAALGRERMRNFDEIYKIYKYFRDLGYVVKSGLKFGALFSVYEKGPGIDHAPMVVVFLEPDKGISATDITRGGRLSHSVRKTWTLATVLRQTGEVVLLGFGWARL,soluble
3,STTEIGWWKLTFLRKKKSTPKVLYEIPDTYAQTEGDAEPPRPDAGGPNSDFNTRLEKIVDKSTKGKHVKVSNSGRFKEKKKVRATLAENPNLFDDHEEGRSSK,soluble
4,MKKETKPRVVVIGGGTGLPVILKGLKKKDIHLTAIVTVADDGGSSGKIREQMDVLPPGDIRNVMLALSNVDPRVVDLFQYRFAVDGDLSGHVIGNLILTALSQLNDSYVDAINVLATVLKIRGKVIPATDQPLILNAEMEDGSIVHGESLIPLQGKHINRVYIEPENVKPYPTAVEAVKEADLIVIGPGSLYTSILPNLLLTELADEITASKAPKVYITNILTQIGETDFFSDADHIKVIHEHVGKSFIDKTLINTTTVPKELLFPEDVAQVEHNAKGMEELGVEAIYQDFLSTEDGLVRHAAEKVADALLAMLPNQTNEKELEHHHHHH,soluble
5,MAAPILFWHRRDLRLSDNIGLAAARAQSAQLIGLFCLDPQILQSADMAPARVAYLQGCLQELQQRYQQAGSRLLLLQGDPQHLIPQLAQQLQAEAVYWNQDIEPYGRDRDGQVAAALKTAGIRAVQLWDQLLHSPDQILSGSGNPYSVYGPFWKNWQAQPKPTPVATPTELVDLSPEQLTAIAPLLLSELPTLKQLGFDWDGGFPVEPGETAAIARLQEFCDRAIADYDPQRNFPAEAGTSGLSPALKFGAIGIRQAWQAASAAHALSRSDEARNSIRVWQQELAWREFYQHALYHFPSLADGPYRSLWQQFPWENREALFTAWTQAQTGYPIVDAAMRQLTETGWMHNRCRMIVASFLTKDLIIDWRRGEQFFMQHLVDGDLAANNGGWQWSASSGMDPKPLRIFNPASQAKKFDATATYIKRWLPELRHVHPKDLISGEITPIERRGYPAPIVNHNLRQKQFKALYNQLKAAIAEPEAEPDS,soluble
6,GNMDSKAVEELSATECHQWYKKFMTECPSGQLTLYEFKQFFGLKNLSPSANKYVEQMFETFDFNKDGYIDFMEYVAALSLVLKGKVDQKLRWYFKLYDVDGNGCIDRGELLNIIKAIRAINRCNEAMTAEEFTNMVFDKIDINGDGELSLEEFMEGVQKDEVLLDILTRSLDLTHIVKLIQNDGKNPHAPEEAEEAAQ,soluble
7,MNKIFIYAGVRNHNSKTLEYTKRLSSIISSRNNVDISFRTPFNSELEISNSDSEELFKKGIDRQSNADDGGVIKKELLESDIIIISSPVYLQNVSVDTKNFIERIGGWSHLFRLAGKFVVTLDVAESNGSDNVSEYLRDIFSYMGGQILHQVSITNSLKDIAEAQLMEATYKIEDVLEGKIKYKTTDYQERAYQTLKLILENYDSEHFEKMYWEKKRLFEANSLEEWYYVENIKLEHHHHHH,soluble
8,MDSDEEILSSYSSLTVTSRNETTISTRDSASNAMPVVVVDDEIFEDASSDISILTKRQESSSIHLDRSKMRKAVHQDLCTHDQKILEPLFLRKCEPHRVRQGTAPPNVIPIQKVENVEANKKFTGHSALLVSLNTPTYCVRYLAANAVHTPKNVLIFASPLSYVRFVARPDPQRTNQSVFEDPSETVRLMMAPDVAKVAQKMLPKWQTVTFTLAFGKHVAVKYRIIEVRKQPVTYVKAKADRVKRVSTSTLYRTEPVQRVDYWRSFKSNELKLSTVEKNDPQIVKRVFLEQQSLNWDPSGVIGTEKEHHHKTIVKSKKIKTGEELNLMWQRTDFH,not soluble
9,MKAIPSNVWATRPTKPFTCFFCPMIVLTEDGSPTILSPHYGEYYHSIHGACRESEHVFVHTGLLHRLESFDPSGTLYLFEVGFGTALNALLTLREQRCRGLSIHYSAIEKFPLERDVYEHLRFSVGMADEDKLLQSLHHAPWGMDCEICPGFTLHKIASDLTDFTFRKPIDLIYFDAFSPEAQPELWSEEIFIRMVAACRSGAVLATYCAKGEIRRRLTRAGFHMERLPGPPGKREILRGTYYLEDRGDSL,not soluble
10,MRSMTLEQLRTASETGGVSSVTLKGQGGAFLVQINTRSGVAAILTKARNSEPRRFGNPAAALNVLREVGITIGQFDASEWNPDEREPVARSSDNRAKALHKAHEAAAYNEWLAAEIQEAIDDPRPGIPHDEVMARMDARIVRHKAAGAKRA,not soluble
11,MTSALATGLATITADGTVLDAWFPAPELTAVDTTGTTVLDGDDIPEHLRLLVGEDADRGVRRQAITTTIADLDAAPIDAYDAYLRLHLLSHRLVKPHGQNLDGIFGLLTNVVWTNHGPCEVKNFDITRAKLQARGPVTVYLVDKFPRMVDYVLPSGVRIGDADRVRLGAHLAEGTTVMHEGFVNFNAGTLGNSMVEGRISAGVVVDDGSDVGGGASIMGTLSGGGKQVISLGKRCLLGANSGCGIPLGDDCVIEAGLYVTAGSKIIVRGAVAEATGLNDGDTTKALELAGANNILFRRNSISGAIEATAWKSQAVELNDALHAN,soluble
12,MGSDKIHHHHHHMDTIAESIQKKAYELGYEKCGIIPINLIDEYADKFNERMEKIPKSKMFYKSQERLIKPKEIYPWAKSVVVLTSVYGKYKVPQELNGHIAKAYLFDTRVDKNTKEYQNNRALEEYMQELGLKVETNQKFGVVGMRWAALQAGVGIIRRNNFLYTESGSWVHLEAWVTDRKMELKETNNVKKCPKSCNRCIMSCPTKSLSEPYTMSPTECVSFLTTFGGRNLPEEPLRKKFGDCIYGCDICQDACPMNKGKWKDEEEFPGLAELAPSLTPENILNMDEDFYREKVQPKFFYLSPEDLWKWKIDALCYIGNNYSESYKPLLVNACNNANNKISEMANLICSELSLQ,not soluble
13,MNQNKSNVPVSVAEEPDELSYYRLTLLSFLRESHPDLADDESFVATRSEQAAEAFSAAVRSGLTYDDAAQQANALLFQGLHFSPLDTLVTVLWNEFAAEVPEGSARSVALQLLPECRKVFAGYTLSDDFMFSPEFGQLYDELTGTVVIWLEENGL,not soluble
14,MGSDKIHHHHHHMDYMKKLLGAEDLFDRDEPLKGVRVLEVCSVVLGPAATDYLAEFGAEVIKFEARRGDQMRYVTPYAYFWRNLSPGLLEQNHNKYWVGMHLGHPKARELFYEFVKRSDVVVDNLTPGRLSKWGISYDRLREINPRIIQLHVSGFGSWGPYTGRTSYDAIAQSEGGLAYITGFEGRGPLKSGVWIADWTTALMCAVAIVAALNYRERTGEGQYIDYSQVENVIRFLDWTWTYVDMTGENRERVGNRDLAICPSDLFDCKDGWVAIVAFSEEEFKGLCQAMGRMDLYEKFADPLERLKDENARLILKEIAEWAKTKTVKDVEELADKYGFAASHVIEVDEAYYSEHLRERGAIMAYDDPLYGEFVEPCYPPRMETPSRLKWGARPLGFDNEFVLTKYLGLSMDEIEQLYEEGVIYRWNPDVKPQCPPPDWDGKKGLKFP,not soluble
15,MGSDKIHHHHHHMYFELKENRPHGTPENPFSQYHISDVKRAFQIPVHWHDELEIIYVKQGKLHVTISGENYIGSPKDAFVVSPGSLHLMGSPTGDADYYTFLFPLEYISFQTDDLMEKSILSPLKRGRLMISPQINDTAADICERLIEINEQISGKNAEKTDAANIEAQFETKITLIKFIRKMWRNGLILENGTNGTNTTEKEMITYIRQNYTREISLKEFGAQFHLSEKYISRYFKEHFHITLSQYVNHLRLEHARQLLEESTASVTEVAMCSGYQNVSYFIRSFKKMYGVSPLKYRNFQTLP,not soluble
16,MSKAKIGIVTVSDRASAGIYEDISGKAIIDTLNDYLTSEWEPIYQVIPDEQDVIETTLIKMADEQDCCLIVTTGGTGPAKRDVTPEATEAVCDRMMPGFGELMRAESLKFVPTAILSRQTAGLRGDSLIVNLPGKPKSIRECLDAVFPAIPYCIDLMEGPYLECNEAVIKPFRPKAK,soluble
